Results on seven molecules are retold here after article PMC5717350, “The human CTF4-orthologue AND-1 interacts with DNA polymerase α/primase via its unique C-terminal HMG box” (Open Biology, 2017).

What is called stoichiometry N is a count of units in the complex or per binding partner.

The chains are these.
B6: Full-length His10-myc-tagged AND-1 (1–1129) (natural protein, human, UniProt O75717 1-1129, looked up)
chain: MPATRKPMRYGHTEGHTEVCFDDSGSFIVTCGSDGDVRIWEDLDDDDPKFINVGEKAYSCALKSGKLVTAVSNNTIQVHTFPEGVPDGILTRFTTNANHVVFNGDGTKIAAGSSDFLVKIVDVMDSSQQKTFRGHDAPVLSLSFDPKDIFLASASCDGSVRVWQISDQTCAISWPLLQKCNDVINAKSICRLAWQPKSGKLLAIPVEKSVKLYRRESWSHQFDLSDNFISQTLNIVTWSPCGQYLAAGSINGLIIVWNVETKDCMERVKHEKGYAICGLAWHPTCGRISYTDAEGNLGLLENVCDPSGKTSSSKVSSRVEKDYNDLFDGDDMSNAGDFLNDNAVEIPSFSKGIINDDEDDEDLMMASGRPRQRSHILEDDENSVDISMLKTGSSLLKEEEEDGQEGSIHNLPLVTSQRPFYDGPMPTPRQKPFQSGSTPLHLTHRFMVWNSIGIIRCYNDEQDNAIDVEFHDTSIHHATHLSNTLNYTIADLSHEAILLACESTDELASKLHCLHFSSWDSSKEWIIDLPQNEDIEAICLGQGWAAAATSALLLRLFTIGGVQKEVFSLAGPVVSMAGHGEQLFIVYHRGTGFDGDQCLGVQLLELGKKKKQILHGDPLPLTRKSYLAWIGFSAEGTPCYVDSEGIVRMLNRGLGNTWTPICNTREHCKGKSDHYWVVGIHENPQQLRCIPCKGSRFPPTLPRPAVAILSFKLPYCQIATEKGQMEEQFWRSVIFHNHLDYLAKNGYEYEESTKNQATKEQQELLMKMLALSCKLEREFRCVELADLMTQNAVNLAIKYASRSRKLILAQKLSELAVEKAAELTATQVEEEEEEEDFRKKLNAGYSNTATEWSQPRFRNQVEEDAEDSGEADDEEKPEIHKPGQNSFSKSTNSSDVSAKSGAVTFSSQGRVNPFKVSASSKEPAMSMNSARSTNILDNMGKSSKKSTALSRTTNNEKSPIIKPLIPKPKPKQASAASYFQKRNSQTNKTEEVKEENLKNVLSETPAICPPQNTENQRPKTGFQMWLEENRSNILSDNPDFSDEADIIKEGMIRFRVLSTEERKVWANKAKGETASEGTEAKKRKRVVDESDETENQEEKAKENLNLSKKQKPLDFSTNQKLSAFAFKQE
notes: the oligomeric state was measured only on the SepB constructs; also called His-myc-AND-1; human CTF4-orthologue AND-1; source: Sf9 insect cells (baculovirus, MultiBac), purified (Ni-NTA, Q-Sepharose)

Series [1] addresses B6. Description: pull-down; GST-B fusion proteins (in figure 6a also GST-Pol α CIP, equimolar) bound to 100 µl glutathione agarose, 2.2 nmol AND-1 (1–1129, 316–1129 or 336–826) added as prey; PD buffer, 2.5 mg/ml BSA, 4°C; Coomassie, anti-His western blot in figure 6a. The settings on record: both partners purified.
Series [2] deals with T1, GST-BNTD (1–78) A47E (human, UniProt Q14181 1-78, A47E).
T1 construct: human DNA polymerase α B subunit, residues 1-78; also called A47E mutant GST-BNTD; source: E. coli Rosetta2(DE3), purified (Ni-NTA agarose)
T1 sequence (looked up): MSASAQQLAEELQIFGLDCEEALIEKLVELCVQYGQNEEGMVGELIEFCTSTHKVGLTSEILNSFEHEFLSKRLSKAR
Description: pull-down; MBP-AND-1 constructs bound to 100 µl amylose resin, 25 nmol GST-B added as prey; PD buffer, 2.5 mg/ml BSA, 4°C; eluted with 20 mM maltose; Coomassie. The settings on record: both partners purified.

For series [3], the target named is T2, GST-BNTD (B subunit amino acids 1–78) (human, UniProt Q14181 1-78).
T2 construct: human DNA polymerase α B subunit, residues 1-78 (four-helix bundle N-terminal domain); also called GST-B(1–78); B N-terminal domain; source: E. coli Rosetta2(DE3), purified (Ni-NTA agarose)
T2 sequence (looked up): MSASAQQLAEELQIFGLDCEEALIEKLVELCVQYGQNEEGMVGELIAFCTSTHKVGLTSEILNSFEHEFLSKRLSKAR
Described as above. The settings on record: both partners purified.

Series [4] concerns the molecule itself. Description: SEC-MALS; 100 µl AND-1 336–826 at 2–4 mg/ml on Superdex S200 10/300 GL; 25 mM HEPES pH 7.0, 200 mM NaCl. Background: Size exclusion chromatography separates by hydrodynamic size, large species first.
Series [5] deals with the molecule itself. Description: crystal structure; AND-1 329–826 crystallised at 9 mg/ml; space group F432, one protomer per asymmetric unit, trimer by crystallographic symmetry; 2.5 Å.
The target in series [6] is T3, Pol α/primase, full-length heterotetrameric complex (Polα-B-PriS-PriL) (human, UniProt P09884 1-1462; Q14181 1-598; P49642 1-420; P49643 1-509).
T3 construct: human DNA polymerase α catalytic subunit, residues 1-1462; human DNA polymerase α B subunit, residues 1-598; human primase small subunit PriS, residues 1-420; human primase large subunit PriL, residues 1-509; The wording 'Double StrepII-tagged human DNA polymerase α (1–1462) and its B subunit (1–598)' leaves open whether the B subunit is tagged too; the tag is written on Pol α only; also called …
T3 sequence (P09884 whole entry, chain 1 of 3, the tested form may be a part): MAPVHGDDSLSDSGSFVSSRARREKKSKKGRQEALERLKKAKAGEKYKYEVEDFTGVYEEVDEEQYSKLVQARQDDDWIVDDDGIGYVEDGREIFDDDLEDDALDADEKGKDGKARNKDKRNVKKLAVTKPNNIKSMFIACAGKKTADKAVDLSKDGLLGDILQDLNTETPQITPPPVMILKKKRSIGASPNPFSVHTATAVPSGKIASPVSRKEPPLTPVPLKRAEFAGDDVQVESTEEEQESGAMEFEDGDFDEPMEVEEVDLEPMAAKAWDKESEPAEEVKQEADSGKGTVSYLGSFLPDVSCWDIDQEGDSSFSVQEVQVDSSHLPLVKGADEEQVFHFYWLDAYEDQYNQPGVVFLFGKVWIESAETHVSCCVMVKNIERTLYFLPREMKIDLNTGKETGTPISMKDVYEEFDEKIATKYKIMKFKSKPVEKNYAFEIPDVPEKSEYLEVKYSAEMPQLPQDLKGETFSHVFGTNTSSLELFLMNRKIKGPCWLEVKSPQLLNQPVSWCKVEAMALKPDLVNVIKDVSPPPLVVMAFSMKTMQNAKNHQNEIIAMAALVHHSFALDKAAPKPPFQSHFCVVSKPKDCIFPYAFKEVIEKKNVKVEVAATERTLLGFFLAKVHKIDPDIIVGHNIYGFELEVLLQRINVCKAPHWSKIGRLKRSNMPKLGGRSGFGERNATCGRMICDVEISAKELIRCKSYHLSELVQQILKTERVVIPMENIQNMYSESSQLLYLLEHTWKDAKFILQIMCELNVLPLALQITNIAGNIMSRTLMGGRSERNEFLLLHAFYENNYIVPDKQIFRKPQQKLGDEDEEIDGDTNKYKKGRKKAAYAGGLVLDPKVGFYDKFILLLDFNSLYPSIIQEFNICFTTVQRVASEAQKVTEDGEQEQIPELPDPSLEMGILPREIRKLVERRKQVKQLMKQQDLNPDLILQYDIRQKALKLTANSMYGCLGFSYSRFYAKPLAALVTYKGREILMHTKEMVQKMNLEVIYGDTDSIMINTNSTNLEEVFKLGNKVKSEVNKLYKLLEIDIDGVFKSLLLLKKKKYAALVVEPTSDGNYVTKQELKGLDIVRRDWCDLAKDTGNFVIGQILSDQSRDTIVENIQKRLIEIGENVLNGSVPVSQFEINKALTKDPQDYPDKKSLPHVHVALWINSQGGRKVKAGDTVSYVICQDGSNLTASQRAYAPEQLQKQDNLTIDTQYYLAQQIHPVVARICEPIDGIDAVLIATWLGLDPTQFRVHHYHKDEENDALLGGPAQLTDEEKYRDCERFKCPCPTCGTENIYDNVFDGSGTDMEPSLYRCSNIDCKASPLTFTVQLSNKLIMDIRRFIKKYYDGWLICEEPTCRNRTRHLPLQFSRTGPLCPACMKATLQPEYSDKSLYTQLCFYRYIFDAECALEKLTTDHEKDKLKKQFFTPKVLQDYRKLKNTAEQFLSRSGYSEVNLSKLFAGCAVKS
T3 sequence (P49642 whole entry, chain 3 of 3, the tested form may be a part): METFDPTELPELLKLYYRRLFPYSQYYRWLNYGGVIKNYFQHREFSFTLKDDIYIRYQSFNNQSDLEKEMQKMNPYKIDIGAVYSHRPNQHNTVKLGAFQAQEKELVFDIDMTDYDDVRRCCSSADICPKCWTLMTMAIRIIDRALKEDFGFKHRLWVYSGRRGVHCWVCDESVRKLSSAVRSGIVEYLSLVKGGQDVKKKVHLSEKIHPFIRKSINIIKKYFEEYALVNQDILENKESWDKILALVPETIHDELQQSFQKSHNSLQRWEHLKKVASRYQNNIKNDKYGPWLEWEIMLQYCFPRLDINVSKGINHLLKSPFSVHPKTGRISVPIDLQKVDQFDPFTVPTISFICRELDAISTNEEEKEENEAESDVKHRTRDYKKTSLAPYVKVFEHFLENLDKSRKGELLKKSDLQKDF
T3 sequence (P49643 whole entry, chain 4 of 3, the tested form may be a part): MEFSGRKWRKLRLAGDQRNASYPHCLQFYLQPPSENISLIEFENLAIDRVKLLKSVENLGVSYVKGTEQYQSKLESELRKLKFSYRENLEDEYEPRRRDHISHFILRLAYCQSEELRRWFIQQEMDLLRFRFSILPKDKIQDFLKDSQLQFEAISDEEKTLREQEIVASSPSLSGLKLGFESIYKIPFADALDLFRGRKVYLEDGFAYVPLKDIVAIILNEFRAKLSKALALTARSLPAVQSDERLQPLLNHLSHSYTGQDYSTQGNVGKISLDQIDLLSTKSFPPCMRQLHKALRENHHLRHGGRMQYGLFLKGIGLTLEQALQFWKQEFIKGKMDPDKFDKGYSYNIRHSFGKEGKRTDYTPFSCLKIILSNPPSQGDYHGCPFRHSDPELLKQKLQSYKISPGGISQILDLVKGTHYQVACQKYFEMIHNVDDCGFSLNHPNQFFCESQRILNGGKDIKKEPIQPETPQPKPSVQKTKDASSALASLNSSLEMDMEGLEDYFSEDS
The series is described as follows: pull-down; StrepII-tagged Pol α/primase bound to 100 µl Strep-Tactin Superflow resin, about 2.4 nmol AND-1 added as prey; PD buffer (PBS, 5% glycerol, 0.5 mM TCEP, 0.2% Igepal), 2.5 mg/ml BSA, 4°C; eluted with 10 mM desthiobiotin; Coomassie and anti-His western blot. Particulars: both partners purified. Background: In western blotting, separated proteins are transferred to a membrane and probed.

In series [7] the target is B6. The series is described as follows: pull-down; competition: Pol α/primase bound to 100 µl Strep-Tactin Superflow resin, 1 nmol AND-1 added together with 100 nmol B (1–78) or Pol α CIP peptide 156–170; eluted with 10 mM desthiobiotin; Coomassie and anti-His western blot. The settings on record: both partners purified.

B1: GST-B subunit (1–104) (domain or fragment, human, UniProt Q14181 1-104, looked up)
chain: MSASAQQLAEELQIFGLDCEEALIEKLVELCVQYGQNEEGMVGELIAFCTSTHKVGLTSEILNSFEHEFLSKRLSKARHSTCKDSGHAGARDIVSIQELIEVEE
notes: human DNA polymerase α B subunit, residues 1-104; also called GST-B fusion protein 1–104; source: E. coli Rosetta2(DE3), purified (Ni-NTA agarose)
In the case of B1, the binding result in series [1] is “binds”.

B2: MBP-tagged AND-1 HMG box (1017–1076), wild type (domain or fragment, human, UniProt O75717 1017-1076, looked up)
chain: RPKTGFQMWLEENRSNILSDNPDFSDEADIIKEGMIRFRVLSTEERKVWANKAKGETASE
notes: human AND-1 HMG box, residues 1017-1076; also called AND-1(1017–1076); source: E. coli Rosetta2(DE3), purified (Ni-NTA, Superdex 200)
Turning to B2, the binding result in series [2] and in series [3] was “binds” throughout.

B3: AND-1 SepB (336–826) (domain or fragment, human, UniProt O75717 336-826, looked up)
chain: GDFLNDNAVEIPSFSKGIINDDEDDEDLMMASGRPRQRSHILEDDENSVDISMLKTGSSLLKEEEEDGQEGSIHNLPLVTSQRPFYDGPMPTPRQKPFQSGSTPLHLTHRFMVWNSIGIIRCYNDEQDNAIDVEFHDTSIHHATHLSNTLNYTIADLSHEAILLACESTDELASKLHCLHFSSWDSSKEWIIDLPQNEDIEAICLGQGWAAAATSALLLRLFTIGGVQKEVFSLAGPVVSMAGHGEQLFIVYHRGTGFDGDQCLGVQLLELGKKKKQILHGDPLPLTRKSYLAWIGFSAEGTPCYVDSEGIVRMLNRGLGNTWTPICNTREHCKGKSDHYWVVGIHENPQQLRCIPCKGSRFPPTLPRPAVAILSFKLPYCQIATEKGQMEEQFWRSVIFHNHLDYLAKNGYEYEESTKNQATKEQQELLMKMLALSCKLEREFRCVELADLMTQNAVNLAIKYASRSRKLILAQKLSELAVEKAAELTAT
notes: source: E. coli Rosetta2(DE3), purified (Ni-NTA, Q-Sepharose, TEV cleavage, Superdex 200)
On to B3, for which, in series [4], the “stoichiometry N” value came to 3.

B4: AND-1 (329–826), SepB domain (domain or fragment, human, UniProt O75717 329-826, looked up)
chain: GDDMSNAGDFLNDNAVEIPSFSKGIINDDEDDEDLMMASGRPRQRSHILEDDENSVDISMLKTGSSLLKEEEEDGQEGSIHNLPLVTSQRPFYDGPMPTPRQKPFQSGSTPLHLTHRFMVWNSIGIIRCYNDEQDNAIDVEFHDTSIHHATHLSNTLNYTIADLSHEAILLACESTDELASKLHCLHFSSWDSSKEWIIDLPQNEDIEAICLGQGWAAAATSALLLRLFTIGGVQKEVFSLAGPVVSMAGHGEQLFIVYHRGTGFDGDQCLGVQLLELGKKKKQILHGDPLPLTRKSYLAWIGFSAEGTPCYVDSEGIVRMLNRGLGNTWTPICNTREHCKGKSDHYWVVGIHENPQQLRCIPCKGSRFPPTLPRPAVAILSFKLPYCQIATEKGQMEEQFWRSVIFHNHLDYLAKNGYEYEESTKNQATKEQQELLMKMLALSCKLEREFRCVELADLMTQNAVNLAIKYASRSRKLILAQKLSELAVEKAAELTAT
notes: human AND-1, residues 329-826 (SepB domain); residues 329-420 and 824-826 not in the final crystallographic model; Trimer arises from crystallographic symmetry (one protomer per asymmetric unit); also called AND-1 SepB
On to B4, for which the binding result in series [5] is reported as “binds”.

B5: GST-B subunit (1–156) (domain or fragment, human, UniProt Q14181 1-156, looked up)
chain: MSASAQQLAEELQIFGLDCEEALIEKLVELCVQYGQNEEGMVGELIAFCTSTHKVGLTSEILNSFEHEFLSKRLSKARHSTCKDSGHAGARDIVSIQELIEVEEEEEILLNSYTTPSKGSQKRAISTPETPLTKRSVSTRSPHQLLSPSSFSPSAT
notes: human DNA polymerase α B subunit, residues 1-156; also called GST-B fusion protein 1–156; source: E. coli Rosetta2(DE3), purified (Ni-NTA agarose)
As for B5, the binding result in series [1] is reported as “binds”.

On to B6, for which, in series [6], the binding result is “binds”.

B7: B (1–78), free BNTD used as competitor (domain or fragment, human, UniProt Q14181 1-78, looked up)
chain: MSASAQQLAEELQIFGLDCEEALIEKLVELCVQYGQNEEGMVGELIAFCTSTHKVGLTSEILNSFEHEFLSKRLSKAR
notes: human DNA polymerase α B subunit, residues 1-78; it names the protein 'B (1–78)' and 'free BNTD'; also called purified BNTD; source: E. coli Rosetta2(DE3), purified
Consider B7, for which, in series [7], the binding result is listed as “binds”.
